Measured values as given in patent US6994974B1, “Intracellular amyloid-beta binding (ERAB) polypeptide-related assays” (The trustees of Columbia University in the city of New York, priority 1997, dated 2006).

Columns and labels:
TrcHis-ERAB polypeptide = target: T1, TrcHis-ERAB polypeptide (Homo sapiens, UniProt Q99714); experiment: Binding of ^125I-amyloid-beta peptide (1–40) to TrcHis-ERAB polypeptide adsorbed to microtiter wells; settings: unlabelled competitor at 10 μM; tracer 100 nM; FIG. 2E
T1 construct: made in house; host or cells: E. coli
T1 sequence (Q99714 1-261): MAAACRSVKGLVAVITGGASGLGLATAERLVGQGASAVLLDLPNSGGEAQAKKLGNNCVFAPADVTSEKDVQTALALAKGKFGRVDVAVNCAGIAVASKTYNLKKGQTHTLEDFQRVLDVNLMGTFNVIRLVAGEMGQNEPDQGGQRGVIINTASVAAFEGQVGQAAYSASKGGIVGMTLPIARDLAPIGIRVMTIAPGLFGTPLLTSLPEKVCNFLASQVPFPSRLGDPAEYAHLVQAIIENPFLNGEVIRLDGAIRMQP
Protocol: FIGS. 2A, 2B, 2C, 2D, 2E, 2F, and 2G. […] FIG. 2A. SDS-PAGE (12%; reduced) followed by immunoblotting of TrcHis-ERAB polypeptide (FIG. 2A, lane 1; 2 μg) and TrcHis-chloramphenicol acetyltransferase (CAT; FIG. 2A, lane 2; 2 μg) fusion proteins using anti-ERAB polypeptide IgG (3 μg/ml). […] FIGS. 2B and 2C. […] Binding was analyzed by nonlinear least squares analysis using the method of Klotz and Hunston (60). FIG. 2E. […] FIGS. 2F and 2G. […] 0 indicates wells coated with albumin alone. […] Control TrcHis-CAT construct (Invitrogen) was also used to transform E. coli and the fusion protein was purified as above. Antibody to ERAB polypeptide was prepared by immunizing rabbits with ERAB polypeptide-derived peptides, corresponding to residues 100–116 and 133–147, conjugated to keyhole limpet hemocyanin. […] (for ERAB polypeptide) or overnight at 4° C. […] Unbound radioactivity was removed by washing wells five times with ice cold phosphate-buffered saline containing Tween 20 (0.05%), and bound radioactivity was eluted by incubation with Nonidet P-40 (1%).

[1] = tested on: ERAB polypeptide in neuroblastoma cells; experiment: Cellular distribution of ERAB polypeptide in neuroblastoma cells by immunofluorescence; format: cell-based, human; settings: peptide added to neuroblastoma cells; amyloid-beta peptide (1–42) 1 μM; FIGS. 4F, 4G
Protocol: FIGS. 4A, 4B, 4C, 4D, 4E, 4F, 4G, 4H, and 4I. Expression of ERAB polypeptide in cultured cells: localization to the endoplasmic reticulum and change in distribution following addition of amyloid-beta peptide. FIG. 4A. Immunoblotting of ERAB polypeptide in human neuroblastoma SK-N-SH (FIG. 4A, lane 1) and HeLa (FIG. 4A, lane 2) cells. Cell extracts (50 μg protein/lane) were subjected to immunoblotting using anti-ERAB polypeptide IgG (3 μg/ml). FIGS. 4B, 4C, and 4D. […] Scale bar=25 μm. FIG. 4E. Subcellular fractionation of ERAB nucleic acid-transfected human neuroblastoma cells. Transfected cells (5×10^8) were pelletted and fractionated in a series of sucrose steps (38%, 30% and 20%) by ultracentrifugation (100,000 for 3 hrs). […] Neuroblastoma cells were incubated in buffer alone or in the presence of amyloid-beta peptide (1–42; 1 μM), and the distribution of ERAB polypeptide was determined by immunofluorescence with anti-ERAB polypeptide IgG. […]
These observations also posed an apparent paradox, for, how could amyloid-beta peptide, most of which is extracellular, interact with a polypeptide associated with endoplasmic reticulum? […] Second, it was determined that ERAB polypeptide became associated with amyloid-beta peptide, and that amyloid-beta peptide-induced effects on ERAB polypeptide were not likely mediated by an indirect mechanism. […]

amyloid-beta peptide (1–20): synthetic amyloid-beta peptide (1–20)
Competition for ^125I-amyloid-beta peptide (1–40) binding to TrcHis-ERAB polypeptide (TrcHis-ERAB polypeptide): blocked binding

amyloid-beta peptide (25–35): synthetic amyloid-beta peptide (25–35) (GSNKGAIIGLM)
Competition for ^125I-amyloid-beta peptide (1–40) binding to TrcHis-ERAB polypeptide (TrcHis-ERAB polypeptide): had no effect

amyloid-beta peptide (1–42): exogenous amyloid-beta peptide (1–42)
Change in cellular distribution of ERAB polypeptide [1]: marked change in the cellular localization

Arg-Gly-Asp-Ser (RGDS)
Competition for ^125I-amyloid-beta peptide (1–40) binding to TrcHis-ERAB polypeptide (TrcHis-ERAB polypeptide): had no effect
